Here are results for 1 molecule from patent publication US20250237661A1 (MESO SCALE TECHNOLOGIES, published 2025).

This experiment concerns the target T1, angiotensin-converting enzyme 2 (ACE2), labeled with a detection label (human, UniProt Q9BYF1 18-740).
T1 construct: also called labeled ACE2
Briefly: labeled ACE2 on immobilized Mixed Panel antigens, ECL.

T1 sequence (Q9BYF1 18-740 limits assumed): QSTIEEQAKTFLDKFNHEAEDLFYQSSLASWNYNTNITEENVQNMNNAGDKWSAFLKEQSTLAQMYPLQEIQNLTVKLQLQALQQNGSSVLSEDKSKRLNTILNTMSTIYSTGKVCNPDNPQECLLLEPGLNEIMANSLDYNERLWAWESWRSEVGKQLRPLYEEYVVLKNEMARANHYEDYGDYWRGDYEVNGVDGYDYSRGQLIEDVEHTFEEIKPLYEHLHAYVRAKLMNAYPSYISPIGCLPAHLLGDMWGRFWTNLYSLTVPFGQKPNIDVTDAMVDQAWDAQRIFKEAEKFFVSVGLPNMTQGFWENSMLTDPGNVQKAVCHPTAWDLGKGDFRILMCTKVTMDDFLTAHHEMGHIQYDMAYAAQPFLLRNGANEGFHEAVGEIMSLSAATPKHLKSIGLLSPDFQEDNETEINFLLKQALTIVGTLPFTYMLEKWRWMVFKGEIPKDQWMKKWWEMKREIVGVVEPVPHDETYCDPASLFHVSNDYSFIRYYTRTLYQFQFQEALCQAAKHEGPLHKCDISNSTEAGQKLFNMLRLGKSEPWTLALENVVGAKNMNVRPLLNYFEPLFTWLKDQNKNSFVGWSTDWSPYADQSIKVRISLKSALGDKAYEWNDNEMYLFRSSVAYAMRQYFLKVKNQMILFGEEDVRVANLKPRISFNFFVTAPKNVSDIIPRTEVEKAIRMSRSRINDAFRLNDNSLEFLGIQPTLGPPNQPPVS

B1: HCoV-OC43 S protein (other)
chain: AVIGDLKCTSDNINDKDTGPPPISTDTVDVTNGLGTYYVLDRVYLNTTLFLNGYYPTSGSTYRNMALKGSVLLSRLWFKPPFLSDFINGIFAKVKNTKVIKDRVMYSEFPAITIGSTFVNTSYSVVVQPRTINSTQDGDNKLQGLLEVSVCQYNMCEYPQTICHPNLGNHRKELWHLDTGVVSCLYKRNFTYDVNADYLYFHFYQEGGTFYAYFTDTGVVTKFLFNVYLGMALSHYYVMPLTCNSKLTLEYWVTPLTSRQYLLAFNQDGIIFNAEDCMSDFMSEIKCKTQSIAPPTGVYELNGYTVQPIADVYRRKPNLPNCNIEAWLNDKSVPSPLNWERKTFSNCNFNMSSLMSFIQADSFTCNNIDAAKIYGMCFSSITIDKFAIPNGRKVDLQLGNLGYLQSFNYRIDTTATSCQLYYNLPAANVSVSRFNPSTWNKRFGFIEDSVFKPRPAGVLTNHDVVYAQHCFKAPKNFCPCKLNGSCVGSGPGKNNGIGTCPAGTNYLTCDNLCTPDPITFTGTYKCPQTKSLVGIGEHCSGLAVKSDYCGGNSCTCRPQAFLGWSADSCLQGDKCNIFANFILHDVNSGLTCSTDLQKANTDIILGVCVNYDLYGILGQGIFVEVNATYYNSWQNLLYDSNGNLYGFRDYIINRTFMIRSCYSGRVSAAFHANSSEPALLFRNIKCNYVFNNSLTRQLQPINYFDSYLGCVVNAYNSTAISVQTCDLTVGSGYCVDYSKNRRSRGAITTGYRFTNFEPFTVNSVNDSLEPVGGLYEIQIPSEFTIGNMVEFIQTSSPKVTIDCAAFVCGDYAACKSQLVEYGSFCDNINAILTEVNELLDTTQLQVANSLMNGVTLSTKLKDGVNFNVDDINFSPVLGCLGSECSKASSRSAIEDLLFDKVKLSDVGFVEAYNNCTGGAEIRDLICVQSYKGIKVLPPLLSENQISGYTLAATSASLFPPWTAAAGVPFYLNVQYRINGLGVTMDVLSQNQKLIANAFNNALYAIQEGFDATNSALVKIQAVVNANAEALNNLLQQLSNRFGAISASLQEILSRLDALEAEAQIDRLINGRLTALNAYVSQQLSDSTLVKFSAAQAMEKVNECVKSQSSRINFCGNGNHIISLVQNAPYGLYFIHFSYVPTKYVTARVSPGLCIAGDRGIAPKSGYFVNVNNTWMYTGSGYYYPEPITENNVVVMSTCAVNYTKAPYVMLNTSIPNLPDFKEELDQWFKNQTSVAPDLSLDYINVTFLDLQVEMNRLQEAIKVLNQSYINLKDIGTYEYYVKWP
With B1, the binding result is “no binding”.
